Test [1] has as its target T1, human Fc-gamma receptor IIa (CD32a) (human, UniProt P12318 34-217).
T1 construct: Soluble receptor injected over captured antibody; also called FcγIIa (CD32a)
T1 sequence (looked up): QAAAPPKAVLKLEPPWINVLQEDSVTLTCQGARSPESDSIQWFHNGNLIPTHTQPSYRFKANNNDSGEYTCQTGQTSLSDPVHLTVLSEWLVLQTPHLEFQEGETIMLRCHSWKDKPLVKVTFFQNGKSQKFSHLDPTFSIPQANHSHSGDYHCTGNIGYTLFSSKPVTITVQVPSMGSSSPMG
As to the kind of experiment: SPR (BIAcore), antibody captured on immobilized CD33 ECD, receptor injected; steady state fit. (In general: Surface plasmon resonance follows binding to a sensor surface in real time, without labels.)
Procedure: (§1) Various concentrations of the Fcγ receptors FcγIIa (CD32a), FcγIIb(CD32b), FcγIIIa (CD16a) and FcγRI (CD64) were injected over the surface and binding was determined.

For test [2], the target named is T2, human Fc-gamma receptor IIb (CD32b) (human, UniProt P31994 43-217).
T2 construct: Soluble receptor injected over captured antibody; also called FcγIIb(CD32b)
T2 sequence (looked up): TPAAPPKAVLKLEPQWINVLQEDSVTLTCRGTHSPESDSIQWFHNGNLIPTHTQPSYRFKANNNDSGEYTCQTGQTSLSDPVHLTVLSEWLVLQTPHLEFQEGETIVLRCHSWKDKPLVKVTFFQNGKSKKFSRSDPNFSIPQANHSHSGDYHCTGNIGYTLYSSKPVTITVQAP
The description is as above.
Procedure: as §1

Test [3] deals with T3, human Fc-gamma receptor IIIa (CD16a) (human, UniProt P08637 17-208).
T3 construct: Soluble receptor injected over captured antibody; also called FcγIIIa (CD16); FcγIIIa (CD16a)
T3 sequence (P08637 17-208 limits assumed): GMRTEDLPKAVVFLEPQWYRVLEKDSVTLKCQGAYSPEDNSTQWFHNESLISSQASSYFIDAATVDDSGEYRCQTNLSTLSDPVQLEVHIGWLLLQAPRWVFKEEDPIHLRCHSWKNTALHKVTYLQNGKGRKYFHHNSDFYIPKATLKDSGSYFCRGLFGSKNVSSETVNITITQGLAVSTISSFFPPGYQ
The test is described as above.
Procedure: as §1

Test [4] has as its target T4, human FcRn, biotinylated through an engineered Avi-tag (human, UniProt P55899 24-297; P61769 21-119).
T4 construct: not shown: engineered Avi-tag
The experiment in a line: SPR (BIAcore), steady-state, pH 6.0; biotinylated human FcRn on streptavidin chip, antibody injected.

The target of test [5] is T5, human Fc-gamma receptor I (CD64) (human, UniProt P12314 16-288, limits assumed).
T5 construct: Soluble receptor injected over captured antibody; also called FcγRI (CD64)
T5 sequence (P12314 16-288 limits assumed): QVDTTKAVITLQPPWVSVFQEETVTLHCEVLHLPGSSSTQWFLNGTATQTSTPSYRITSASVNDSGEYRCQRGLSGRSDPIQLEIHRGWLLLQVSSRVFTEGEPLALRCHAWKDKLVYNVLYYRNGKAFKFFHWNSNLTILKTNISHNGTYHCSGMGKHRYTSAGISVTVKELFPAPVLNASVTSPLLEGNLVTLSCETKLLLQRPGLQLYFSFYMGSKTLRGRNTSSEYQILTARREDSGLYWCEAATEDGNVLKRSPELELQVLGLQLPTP
The experiment in a line: SPR (BIAcore), antibody captured on immobilized CD33 ECD, receptor injected; kinetic fit.
Procedure: as §1

In test [6] the target is T1, human Fc-gamma receptor IIa (CD32a). The experiment in a line: SPR (BIAcore), ADC captured on immobilized CD33 ECD, receptor injected; steady state fit.
Procedure: as §1
In test [7] the target is T2, human Fc-gamma receptor IIb (CD32b). Described as above.
Procedure: as §1
The target of test [8] is T3, human Fc-gamma receptor IIIa (CD16a). Described as above.
Procedure: as §1
In test [9] the target is T4, human FcRn, biotinylated through an …. As to the kind of experiment: SPR (BIAcore), steady-state, pH 6.0; biotinylated human FcRn on streptavidin chip, ADC injected.
Source text: BIAcore® technology utilizes changes in the refractive index at the surface layer of a sensor upon binding of the anti-CD33 derived monoclonal antibodies or their respective ADCs to human FcRn protein immobilized on the layer. Binding was detected by surface plasmon resonance (SPR) of laser light refracting from the surface. Human FcRn was specifically biotinylated through an engineered Avi-tag using the BirA reagent (Catalog #: BIRA500, Avidity, LLC, Aurora, Colo.) and immobilized onto a streptavidin (SA) sensor chip to enable uniform orientation of the FcRn protein on the sensor.
For test [10], the target named is T5, human Fc-gamma receptor I (CD64). The experiment in a line: SPR (BIAcore), ADC captured on immobilized CD33 ECD, receptor injected; kinetic fit.
Procedure: as §1

Broadly, the Kd is the constant that tells how readily two partners part at equilibrium.

T4 sequence (P55899 24-297 limits assumed, change not shown, chain 1 of 2): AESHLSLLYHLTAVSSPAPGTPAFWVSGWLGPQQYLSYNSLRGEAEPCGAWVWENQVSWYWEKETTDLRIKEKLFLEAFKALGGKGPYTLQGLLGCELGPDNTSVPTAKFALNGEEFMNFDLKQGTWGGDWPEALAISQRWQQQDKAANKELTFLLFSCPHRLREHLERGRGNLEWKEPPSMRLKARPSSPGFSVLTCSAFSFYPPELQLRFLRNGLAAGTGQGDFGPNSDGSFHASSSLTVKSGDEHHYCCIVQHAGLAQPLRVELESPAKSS
T4 sequence (P61769 21-119 limits assumed, change not shown, chain 2 of 2): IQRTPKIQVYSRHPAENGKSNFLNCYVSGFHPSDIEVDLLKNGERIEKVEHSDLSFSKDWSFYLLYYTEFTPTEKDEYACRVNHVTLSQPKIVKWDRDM

B1: CD33-(K334C/K392C) antibody (unconjugated) (antibody, human IgG1)
heavy: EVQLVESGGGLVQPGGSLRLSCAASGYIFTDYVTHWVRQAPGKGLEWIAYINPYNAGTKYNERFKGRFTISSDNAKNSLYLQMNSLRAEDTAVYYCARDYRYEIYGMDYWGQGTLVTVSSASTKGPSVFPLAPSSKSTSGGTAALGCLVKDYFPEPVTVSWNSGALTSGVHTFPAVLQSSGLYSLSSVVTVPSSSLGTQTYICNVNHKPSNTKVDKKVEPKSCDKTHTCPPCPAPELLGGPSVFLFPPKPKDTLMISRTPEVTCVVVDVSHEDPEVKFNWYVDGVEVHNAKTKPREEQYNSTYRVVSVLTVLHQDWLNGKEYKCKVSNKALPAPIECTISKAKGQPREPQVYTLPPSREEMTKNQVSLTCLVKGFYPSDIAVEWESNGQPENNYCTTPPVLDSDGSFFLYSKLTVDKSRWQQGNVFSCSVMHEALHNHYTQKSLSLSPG
light: DIQLTQSPSSLSASVGDRVTITCRASSSVGYMHWYQQKPGKAPKLLIYDTSQLASGVPSRFSGSGSGTDFTLTISSLQPEDFATYYCQLWSSNPLTFGGGTKVEIKRTVAAPSVFIFPPSDEQLKSGTASVVCLLNNFYPREAKVQWKVDNALQSGNSQESVTEQDSKDSTYSLSSTLTLSKADYEKHKVYACEVTHQGLSSPVTKSFNRGEC
notes: Human IgG1 with engineered Cys at heavy chain positions 334 and 392 (Eu index of Kabat); also called CD33-(K334C/K392C)-human IgG1 antibody
In the case of B1, the Kd was 900 nM in test [1]; 3460 nM in test [2]; 210 nM in [3]; 964 nM in test [4]; 0.02 nM in test [5].

B2: CD33-(K334C/K392C)-CPI (CD33-(K334C/K392C)-MalPeg6-vc-PABC-DMAE-CPI ADC) (antibody, human IgG1)
heavy: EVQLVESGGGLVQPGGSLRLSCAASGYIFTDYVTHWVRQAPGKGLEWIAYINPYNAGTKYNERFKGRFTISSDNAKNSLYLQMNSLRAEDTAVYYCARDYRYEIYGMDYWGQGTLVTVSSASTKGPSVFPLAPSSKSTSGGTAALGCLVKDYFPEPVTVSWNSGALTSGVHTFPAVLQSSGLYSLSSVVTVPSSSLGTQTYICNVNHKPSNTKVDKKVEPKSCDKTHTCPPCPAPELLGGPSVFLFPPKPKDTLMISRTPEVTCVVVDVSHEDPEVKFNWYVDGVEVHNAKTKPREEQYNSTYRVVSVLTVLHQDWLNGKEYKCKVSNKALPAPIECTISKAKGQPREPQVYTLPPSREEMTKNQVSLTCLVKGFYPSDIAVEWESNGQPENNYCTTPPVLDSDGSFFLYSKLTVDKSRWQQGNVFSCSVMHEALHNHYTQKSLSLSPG
light: DIQLTQSPSSLSASVGDRVTITCRASSSVGYMHWYQQKPGKAPKLLIYDTSQLASGVPSRFSGSGSGTDFTLTISSLQPEDFATYYCQLWSSNPLTFGGGTKVEIKRTVAAPSVFIFPPSDEQLKSGTASVVCLLNNFYPREAKVQWKVDNALQSGNSQESVTEQDSKDSTYSLSSTLTLSKADYEKHKVYACEVTHQGLSSPVTKSFNRGEC
modifications: linker-payload MalPeg6-vc-PABC-DMAE-CPI (LP7) on engineered Cys 334 and Cys 392 (Eu index of Kabat); DAR 4.0
notes: Antibody drug conjugate, human IgG1
In the case of B2, the Kd in [6] was 12900 nM; in test [7] it was 20100 nM; in [8], 5650 nM; in test [9], 1220 nM; in test [10], 0.17 nM.

The record behind these values is patent US20190099499A1 (Pfizer, published 2019).
